Data taken from PMC12650144, “Interactive Role of the DHPR β1a SH3 Domain in Skeletal Muscle Excitation–Contraction Coupling” (Biomolecules, 2025).

Tests used:
Assay in all cases: other fluorescence titration; tryptophan fluorescence quenching: intrinsic fluorescence of the β subunit or β1a-SH3 domain in the cuvette (sub-micromolar; 50 nM β1a-FL for the AID titration) monitored while titrating the II-III loop or peptides; excitation 280 nm, emission 340 nm; corrected for dilution and intrinsic fluorescence of the titrant; nonlinear regression
[1] = molecular target: DHPR β1a subunit, full length (mouse) (UniProt Q8R3Z5)
[2] = molecular target: DHPR β1a SH3 domain (β1a residues V101-P272) (mouse) (UniProt Q8R3Z5)
[3] = molecular target: β1a/β2a RT loop chimera, HE to PG mutant (mouse)
[4] = molecular target: β2a HE to PG mutant (mouse) (UniProt Q8CC27)

Sequence of DHPR β1a subunit, full length (mouse) (Q8R3Z5 other isoform, or with tags, fused parts or gaps): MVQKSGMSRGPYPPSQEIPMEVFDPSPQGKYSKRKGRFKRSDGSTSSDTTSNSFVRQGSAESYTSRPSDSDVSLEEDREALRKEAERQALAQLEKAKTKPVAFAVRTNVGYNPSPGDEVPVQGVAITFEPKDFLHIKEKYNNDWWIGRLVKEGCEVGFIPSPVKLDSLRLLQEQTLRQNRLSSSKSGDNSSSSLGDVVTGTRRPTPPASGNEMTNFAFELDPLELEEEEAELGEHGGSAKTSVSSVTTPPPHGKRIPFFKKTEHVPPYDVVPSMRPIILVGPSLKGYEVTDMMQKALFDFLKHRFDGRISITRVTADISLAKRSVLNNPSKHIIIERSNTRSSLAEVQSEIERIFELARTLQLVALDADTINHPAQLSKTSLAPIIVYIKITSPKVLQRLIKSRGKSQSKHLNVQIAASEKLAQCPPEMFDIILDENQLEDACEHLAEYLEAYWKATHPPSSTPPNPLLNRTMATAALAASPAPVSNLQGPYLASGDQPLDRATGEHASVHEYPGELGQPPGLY
Sequence of DHPR β1a SH3 domain (β1a residues V101-P272) (mouse) (Q8R3Z5 other isoform, or with tags, fused parts or gaps): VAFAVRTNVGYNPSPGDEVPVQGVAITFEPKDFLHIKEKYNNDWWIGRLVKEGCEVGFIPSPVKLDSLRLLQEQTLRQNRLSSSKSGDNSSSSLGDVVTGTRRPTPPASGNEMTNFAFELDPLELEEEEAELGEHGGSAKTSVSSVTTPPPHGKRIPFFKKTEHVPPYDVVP
Sequence of α1s II–III loop C region peptide (residues 720–765) (P07293 720-765): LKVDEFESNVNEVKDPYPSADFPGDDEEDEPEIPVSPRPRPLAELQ

Substance | Kd [1] | Kd [2] | Kd [3] | Kd [4]
sP1 D⟶E mutant (from UniProt P07293 733-745) (peptide) | 15 µM | 17 µM | – | –
sP1 P⟶T mutant (from UniProt P07293 733-745) (peptide) | 22 µM | 19 µM | – | –
α1s II–III loop C region peptide (residues 720–765) (from UniProt P07293 720-765) | – | – | 8.7 µM | 10.4 µM

Other lines, results leading:

Kd [1] | Kd [2] | Kd [3] | Kd [4] | Substance
0.0152 µM | – | – | – | DHPR α1s I-II loop AID peptide
4.5 µM | 2.3 µM | – | – | sP1 A⟶P mutant (from UniProt P07293 733-745) (peptide)
4.6 µM | 4.6 µM | – | – | sP1 F⟶T mutant (from UniProt P07293 733-745) (peptide)
3.6 µM | 2.6 µM | – | – | α1s C binding peptide 1 (from UniProt P07293 733-745)
5.4 µM | 3.8 µM | – | – | α1s C binding peptide 2 (from UniProt P07293 748-764)
